Data as given in the supplement of paper PMC10567573.

B1: LOXL2 (parent)
chain: HISSCKLGPQVSLDPMKNVTCENG

Variants of: B1
Assay: protein stability index of a GFP-peptide fusion (GPS, HEK-293T) (PSI 1-6); higher = more stable
Conditions: c terminus: a fixed tail appended
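Further: lentivirally expressed fusions sorted by FACS into six bins by GFP to DsRed ratio, PSI derived from sequencing read proportions per bin multiplied by bin number.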

| Variant | protein stability index |
| --- | --- |
| HISSCKLGPQFSLDPMKNVTCENG [V11F] | 3.56 |
| HISSCKLGPQVSLDPMKNVDCENG [T20D] | 4.4 |
| HISSCKLGPQVSLQPMKNVTCENG [D14Q] | 3.58 |
| CISSCKLGPQVSLDPMKNVTCENG [H1C] | 3.73 |
| HISSCKLGPQVSLDPGKNVTCENG [M16G] | 4.22 |
| HISSCKLGPQVSLDPMKIVTCENG [N18I] | 3.4 |
| HISSCKLGPQVHLDPMKNVTCENG [S12H] | 4 |
| HISSCKLGPQNSLDPMKNVTCENG [V11N] | 4.33 |
| HISSCKLGPQVSLDPMINVTCENG [K17I] | 3.3 |
| HISSCKLGPQVSLDPMRNVTCENG [K17R] | 3.55 |
| HISSMKLGPQVSLDPMKNVTCENG [C5M] | 4.2 |
| HISSCKLGPPVSLDPMKNVTCENG [Q10P] | 3.68 |
| HISSCKLGPQVSLDPMKNVTYENG [C21Y] | 3.36 |
| HISSVKLGPQVSLDPMKNVTCENG [C5V] | 4.31 |
| HISSCKNGPQVSLDPMKNVTCENG [L7N] | 4.37 |
| HISSCKLGCQVSLDPMKNVTCENG [P9C] | 3.23 |
| HISSCKLGPQVSLDPMKNVTCEYG [N23Y] | 3.35 |
| HISSCKLGPQVSLDPMCNVTCENG [K17C] | 3.63 |
| HISSCKLGPQLSLDPMKNVTCENG [V11L] | 3.72 |
| HISSCKLGPQVSLDPMPNVTCENG [K17P] | 4.01 |
| HISPCKLGPQVSLDPMKNVTCENG [S4P] | 4.22 |
| HISSCKLGPQVMLDPMKNVTCENG [S12M] | 3.57 |
| HISSCKLGPQESLDPMKNVTCENG [V11E] | 4.58 |
| HISSCKLGPQVSLDPMKNVNCENG [T20N] | 4.13 |

| Variant | protein stability index |
| --- | --- |
| HISSCKLGPQVSLDPMKNSTCENG [V19S] | 4.38 |
| HISSCKDGPQVSLDPMKNVTCENG [L7D] | 4.15 |
| HISSCKLGPQVSLDPMKNVVCENG [T20V] | 3.83 |
| HISSCKLSPQVSLDPMKNVTCENG [G8S] | 3.66 |
| HISSCKFGPQVSLDPMKNVTCENG [L7F] | 4.1 |
| HISSCKLGPQVSLDRMKNVTCENG [P15R] | 3.82 |
| HISSCKLGPQVSLDPMKNVTPENG [C21P] | 4.17 |
| HISSCKLGPQVSLDPMKNCTCENG [V19C] | 3.86 |
| HISSCKLGPQVSLDPMKNVPCENG [T20P] | 4.26 |
| HISSCKLGPQVSLDPMKNVTCENS [G24S] | 4.25 |
| HISSCKLGPQVSLDPMKNVTCENV [G24V] | 3.67 |
| HISSCKLGLQVSLDPMKNVTCENG [P9L] | 2.84 |
| HISSCKLGPQVSSDPMKNVTCENG [L13S] | 4.45 |
| HISSCKLGPQVSLDPMTNVTCENG [K17T] | 4.19 |
| HISSPKLGPQVSLDPMKNVTCENG [C5P] | 4.01 |
| HISSCKLGPQVSLDPMKQVTCENG [N18Q] | 4.2 |
| HISSCKLGPQDSLDPMKNVTCENG [V11D] | 4.35 |
| HISSCKLGSQVSLDPMKNVTCENG [P9S] | 3.05 |
| HISSCPLGPQVSLDPMKNVTCENG [K6P] | 4.48 |
| HISSCKMGPQVSLDPMKNVTCENG [L7M] | 4.31 |
| HISSCKLGPQVSLDPMKNVFCENG [T20F] | 2.48 |
| HISSCKLGAQVSLDPMKNVTCENG [P9A] | 3.85 |
| HISSCKLGPQVSLDPHKNVTCENG [M16H] | 4.11 |
| HISSCKRGPQVSLDPMKNVTCENG [L7R] | 4.15 |

| Variant | protein stability index |
| --- | --- |
| HISSCKLGPQVSYDPMKNVTCENG [L13Y] | 3.5 |
| HISSCKLGPQVSLDPMKNVTAENG [C21A] | 4.41 |
| HISSCKLGPQVSLDPMKNVACENG [T20A] | 3.99 |
| HISWCKLGPQVSLDPMKNVTCENG [S4W] | 2.32 |
| HISSCKLGPIVSLDPMKNVTCENG [Q10I] | 3.54 |
| HISSNKLGPQVSLDPMKNVTCENG [C5N] | 3.29 |
| HISSCKLGPQVSLDPMKNKTCENG [V19K] | 4.13 |
| HISSCKLGPQVSCDPMKNVTCENG [L13C] | 3.68 |
| HVSSCKLGPQVSLDPMKNVTCENG [I2V] | 4.21 |
| HISSCKLGPQVTLDPMKNVTCENG [S12T] | 4.34 |
| HISHCKLGPQVSLDPMKNVTCENG [S4H] | 3.98 |
| HISSCKLGPQVSLDPMKNVTLENG [C21L] | 3.88 |
| HIKSCKLGPQVSLDPMKNVTCENG [S3K] | 4.01 |
| HISSCKLGPQVSLDPMKNVTCENE [G24E] | 4.47 |
| HISSCKLGPQVSLDPMKNVTCGNG [E22G] | 3.17 |
| HISSCKLGPQSSLDPMKNVTCENG [V11S] | 4.09 |
| HISSCKLGWQVSLDPMKNVTCENG [P9W] | 2.2 |
| HISSCKLGPQVSLEPMKNVTCENG [D14E] | 4.12 |
| HISSCLLGPQVSLDPMKNVTCENG [K6L] | 4.22 |
| HMSSCKLGPQVSLDPMKNVTCENG [I2M] | 4.41 |
| HISSCKLGPQVSKDPMKNVTCENG [L13K] | 4.15 |
| HISSCKLGQQVSLDPMKNVTCENG [P9Q] | 3.87 |
| HISSCKLGPQVSLMPMKNVTCENG [D14M] | 3.22 |
| HISSCKLGPQYSLDPMKNVTCENG [V11Y] | 3.67 |

| Variant | protein stability index |
| --- | --- |
| HISSCKHGPQVSLDPMKNVTCENG [L7H] | 4.19 |
| HISSCKLGPQVALDPMKNVTCENG [S12A] | 4.3 |
| HISSHKLGPQVSLDPMKNVTCENG [C5H] | 4.37 |
| HISSCKLGPQVSLDPMKAVTCENG [N18A] | 3.76 |
| HISSCKLGPQVSLDPMKNVTCEPG [N23P] | 3.63 |
| HISSCKLDPQVSLDPMKNVTCENG [G8D] | 4.34 |
| HISSCKLGPQVSLDPMKNVTCEGG [N23G] | 3.85 |
| HFSSCKLGPQVSLDPMKNVTCENG [I2F] | 3.58 |
| HISSCKLGPQVSLDPMKNVTCENF [G24F] | 3.34 |
| HISSCKLGKQVSLDPMKNVTCENG [P9K] | 4.25 |
| HISSCKLGPQVSLDNMKNVTCENG [P15N] | 4.11 |
| IISSCKLGPQVSLDPMKNVTCENG [H1I] | 2.63 |
| HISSCKLGPQVSLDPMKKVTCENG [N18K] | 4.19 |
| HISSCKLGPQVSLDPMKFVTCENG [N18F] | 2.82 |
| HISSCKLGPQVSLDPMKNVSCENG [T20S] | 4.08 |
| HISSCKLGPQISLDPMKNVTCENG [V11I] | 3.72 |
| HISSCKLGPQVSDDPMKNVTCENG [L13D] | 4.34 |
| HISSCKLGPQVSLDMMKNVTCENG [P15M] | 3.74 |
| HISSCKLGGQVSLDPMKNVTCENG [P9G] | 3.51 |
| HISSCKLGHQVSLDPMKNVTCENG [P9H] | 3.73 |
| HISSCHLGPQVSLDPMKNVTCENG [K6H] | 4 |
| HISSCKLGPQVSLHPMKNVTCENG [D14H] | 3.61 |
